Results as given in publication PMC5225419.

Molecular target: full length (FL) human recombinant TPPP/p25 (Tubulin Polymerization Promoting Protein) (human) (UniProt O94811)
Assay: SDS-PAGE without reducing agent; 5 ug protein from the 200 uM stock solution loaded directly onto the gel in the absence of DTE; disulphide-stabilized dimers

stoichiometry N: 2
Substance: full length (FL) human recombinant TPPP/p25 (Tubulin Polymerization Promoting Protein) (from UniProt O94811 1-219) (natural protein; other documents disagree on this pair)
